# Results as given in PMC6530996, “HspB1 phosphorylation regulates its intramolecular dynamics and mechanosensitive molecular chaperone interaction with filamin C” (Science Advances, 2019).
# Test: ion mobility collision cross-section
# Format: physicochemical
# Conditions: native IM-MS, N2, calibrated with β-lactoglobulin and avidin
# Description: To isolate a stable HspB1-FLNCd18–21 complex and localize the binding within HspB1, we performed native ion mobility MS (IM-MS) experiments. […] Next, we mixed FLNCd18–21 with either HspB1_84–171 or peptides mimicking the PPR, because this region is phosphorylated in the MLP KO mice (Fig. 1C) and generally upon biomechanical stress ([26]) and becomes exposed thereafter. This strategy of using segments of HspB1 meant that we could avoid the problems of insolubilization of the full-length protein upon interaction with FLNC d18–21, as well as generally mitigate the confounding effects associated with the chaperone’s intrinsic polydispersity.
# Because HspB1 can form disulfide-linked dimers, experiments involving the ACD were performed in the presence of 10-fold molar excess DTT. Gold-plated capillaries were prepared in-house. Native MS and IM-MS data were recorded on a Synapt G1 mass spectrometer (Waters) modified for the transmission of intact noncovalent protein complexes. HspB1_77–171 variants were analyzed at a concentration of 10 μM in 200 mM ammonium acetate (pH 6.9). […]
# CCSs (Ω) of models from the PDB (trimmed in PyMOL as described in the Supplementary Materials) were calculated by the projection approximation method using IMPACT ([60]), accounting for N2 as the collision gas. […]
molecule,measurement,value
"FLNCd18–21: Human FLNC domains 18-21 (protein, left off: His6, C-terminal, state not stated | EEF, C-terminal, kept) TAKITGDDSMRTSQLNVGTSTDVSLKITESDLSQLTASIRAPSGNEEPCLLKRLPNRHIGISFTPKEVGEHVVSVRKSGKHVTNSPFKILVGPSEIGDASKVRVWGKGLSEGHTFQVAEFIVDTRNAGYGGLGLSIEGPSKVDINCEDMEDGTCKVTYCPTEPGTYIINIKFADKHVPGSPFTVKVTGEGRMKESITRRRQAPSIATIGSTCDLNLKIPGNWFQMVSAQERLTRTFTRSSHTYTRTERTEISKTRGGETKREVRVEESTQVGGDPFPAVFGDFLGRERLGSFGSITRQQEGEASSQDMTAQVTSPSGKVEAAEIVEGEDSAYSVRFVPQEMGPHTVAVKYRGQHVPGSPFQFTVGPLGEGGAHKVRAGGTGLERGVAGVPAEFSIWTREAGAGGLSIAVEGPSKAEIAFEDRKDGSCGVSYVVQEPGDYEVSIKFNDEHIPDSPFVVPVASLSDDA",collision cross section (CCS),37.2 ± 0.8 nm^2
